Measurements from the supplement of paper PMC7125110.
± gives the standard error. This sample holds only a part of the variants without activity.

B1: glmS ribozyme (parent)
chain: AUAAAAGCGCCAGAACUACAGAAAUGUAGUUGACGAGGAGGAGGUUUAUCGAAUUUUCGGCGGAUGCCUCCAAA

How the values were obtained:
Conditions in all cases: with glucosamine-6-phosphate
glucosamine-6-phosphate [1] = variants of: B1; assay: self-cleavage kobs at 160 uM GlcN6P; higher = faster cleavage; RNA array
Summary of the method: (§1)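 E. coli RNA polymerase transcribed barcoded ribozyme variants in situ on sequenced MiSeq chips, which were tracked via a hybridised Cy3 probe at 37 °C. Tiles were imaged over ~14 h after glucosamine-6-phosphate (40 μM to 10 mM) in HEPES/KCl/Mg(OAc)2 buffer was flowed in. Normalised per-tile medians were fit to one- or two-exponential decays for kobs, and kcat and KM came from weighted Michaelis–Menten fits.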

glucosamine-6-phosphate [2] = variants of: B1; assay: self-cleavage kobs at 2500 uM GlcN6P; higher = faster cleavage; RNA array
Summary of the method: as §1

glucosamine-6-phosphate [3] = variants of: B1; assay: self-cleavage kobs at 10000 uM GlcN6P; higher = faster cleavage; RNA array
Summary of the method: as §1

glucosamine-6-phosphate [4] = variants of: B1; assay: self-cleavage kobs at 640 uM GlcN6P; higher = faster cleavage; RNA array
Summary of the method: as §1

glucosamine-6-phosphate [5] = variants of: B1; assay: self-cleavage kobs at 40 uM GlcN6P; higher = faster cleavage; RNA array
Summary of the method: as §1

Row | Variant | self-cleavage kobs at 160 uM GlcN6P (glucosamine-6-phosphate [1]) [s⁻¹] | self-cleavage kobs at 2500 uM GlcN6P (glucosamine-6-phosphate [2]) [s⁻¹] | self-cleavage kobs at 10000 uM GlcN6P (glucosamine-6-phosphate [3]) [s⁻¹] | self-cleavage kobs at 640 uM GlcN6P (glucosamine-6-phosphate [4]) [s⁻¹] | self-cleavage kobs at 40 uM GlcN6P (glucosamine-6-phosphate [5]) [s⁻¹]
1 | U31G C68G | 0.000192 ± 8.2e-05 | 6.11e-05 ± 1.1e-05 | 3.16e-05 ± 8.9e-06 | – | –
2 | C8G G38A C58G C67G | 0.000186 ± 5e-05 | 0.000435 ± 0.00014 | – | 0.000538 ± 0.00013 | –
3 | C11A G41U G43C | < 1e-05 | – | – | < 1e-05 | –
4 | G13U A42U | < 1e-05 | < 1e-05 | – | < 1e-05 | –
5 | U30A A48U G62A | < 1e-05 | < 1e-05 | – | < 1e-05 | –
6 | A6G U31A G44U C67G | – | – | – | < 1e-05 | < 1e-05
7 | G9U G29A G35U U46G | < 1e-05 | < 1e-05 | – | < 1e-05 | –
8 | A15C A64U | < 1e-05 | – | – | < 1e-05 | –
9 | A42C U45G | < 1e-05 | – | – | < 1e-05 | –
10 | A42G A52G U65G | – | 8.47e-05 ± 2.8e-05 | 0.000346 ± 8.1e-05 | – | < 1e-05
11 | A39C G51U C71A | < 1e-05 | – | – | – | –
12 | C16U G43U G59U | < 1e-05 | – | – | < 1e-05 | –
13 | G29C G41C G60A | < 1e-05 | < 1e-05 | < 1e-05 | < 1e-05 | –
14 | U2C C11U G40A U45G | – | – | – | – | < 1e-05
15 | A6G A36G U56A | < 1e-05 | < 1e-05 | – | < 1e-05 | –
16 | U57G U69G | 8.11e-05 ± 1.7e-05 | 4.87e-05 ± 1.6e-05 | – | 0.000113 ± 2.8e-05 | –
17 | G7U C8U | < 1e-05 | < 1e-05 | < 1e-05 | < 1e-05 | < 1e-05
18 | A12G A36G G38C | – | – | – | – | < 1e-05
19 | G7A A12U A33C C58A A64G | – | – | < 1e-05 | – | < 1e-05
20 | G35C A42G U49A G66C | – | < 1e-05 | < 1e-05 | – | < 1e-05
21 | G29A G35A | < 1e-05 | < 1e-05 | – | – | –
22 | A15U G38U U55C | – | – | – | – | < 1e-05
23 | C16G G41C G59A | < 1e-05 | < 1e-05 | – | < 1e-05 | –
24 | G43C U46C | < 1e-05 | < 1e-05 | – | < 1e-05 | < 1e-05
25 | A12G A48G G63A A64G | – | – | < 1e-05 | – | < 1e-05

Row | Variant | self-cleavage kobs at 160 uM GlcN6P (glucosamine-6-phosphate [1]) [s⁻¹] | self-cleavage kobs at 2500 uM GlcN6P (glucosamine-6-phosphate [2]) [s⁻¹] | self-cleavage kobs at 10000 uM GlcN6P (glucosamine-6-phosphate [3]) [s⁻¹] | self-cleavage kobs at 640 uM GlcN6P (glucosamine-6-phosphate [4]) [s⁻¹] | self-cleavage kobs at 40 uM GlcN6P (glucosamine-6-phosphate [5]) [s⁻¹]
26 | G13U G32A G41C G63U C71A | < 1e-05 | < 1e-05 | – | < 1e-05 | –
27 | G40U C61G | < 1e-05 | – | < 1e-05 | < 1e-05 | –
28 | G44A U54C U65G C68G | < 1e-05 | < 1e-05 | – | < 1e-05 | –
29 | G29C G44A G60A A64G | < 1e-05 | < 1e-05 | – | < 1e-05 | –
30 | A36C G59U C68G | – | – | – | – | < 1e-05
31 | A52U G60A G66C | < 1e-05 | – | – | < 1e-05 | –
32 | C8U G35C C50U G51U C61G | < 1e-05 | < 1e-05 | – | – | –
33 | A6C G29C A53U | < 1e-05 | – | – | – | < 1e-05
34 | U31C G44A | < 1e-05 | – | – | – | < 1e-05
35 | A15U C34U C50G | 0.000153 ± 3.2e-05 | 0.000132 ± 3.4e-05 | – | – | –
36 | G9C U56G | < 1e-05 | < 1e-05 | < 1e-05 | < 1e-05 | < 1e-05
37 | U31G G35U | < 1e-05 | < 1e-05 | < 1e-05 | < 1e-05 | < 1e-05
38 | C67G C68A | 7.05e-05 ± 2.1e-05 | 2.05e-05 ± 7.5e-06 | – | 3.85e-05 ± 1.1e-05 | –
39 | G29U G35U G38U A52G | < 1e-05 | – | – | < 1e-05 | –
40 | G13C A14G U55G G59U C68G | 0.000122 ± 5.4e-05 | 9.91e-05 ± 3.7e-05 | – | 0.000281 ± 7e-05 | –
41 | U45G U57A G59A G62U | < 1e-05 | < 1e-05 | < 1e-05 | – | –
42 | C8A A14U | < 1e-05 | < 1e-05 | – | < 1e-05 | –
43 | C10U C16G G29U | – | – | – | – | < 1e-05
44 | C16G G51U U56C C70U | < 1e-05 | – | – | < 1e-05 | –
45 | C11U U45G U55A C67G C68A | – | – | 5.91e-05 ± 1.9e-05 | – | 6.74e-05 ± 3.3e-05
46 | C16A A33G A64G C71G | 8.57e-05 ± 3.4e-05 | 6.35e-05 ± 2.8e-05 | – | – | –
47 | C8A A15U U47C U55A G63C U65G | < 1e-05 | – | – | – | –
48 | G59U C67U U69A | 6.91e-05 ± 2.5e-05 | – | – | – | –
49 | G7A U54G | < 1e-05 | – | 4.41e-05 ± 1.5e-05 | – | –
50 | A6U A14C G51A | < 1e-05 | – | – | < 1e-05 | –
